The record followed here is patent US20150082475.

For this data set, the target named is light-harvesting complex II (LHCII) in thylakoids of the Arabidopsis thaliana stn7 stn8 double mutant.

B1: recombinant OsPSTOL1 (OsPSTOL1rec) (protein)
chain: MLLCQRASKNAPRIESFLQKQETSNPKRYTLSEVKRMTKSFAHKLGRGGFGTVYKGSLPDGREIAVKMLKDTKGDGEEFINEVAGISKTSHINVVNLLGFSLQGSKRALIYEYMPNGSLDRYSFGDSSVQGDNTLSWDRLFNIIVGIARGLEYLHCHCNIRIVHFDIKPQNILLAQDFCPKISDFGLSKLCHLKESRISINGLRGTPGYIAPEVFSRQYGSASSKSDVYSYGMVVLEMAGAKKNINVSTGSSSKYFPQWLYDNLDQFCCPTGEISSQTTDLVRKMVVVGLWCIQLVPTDRPSMREVLEMLESNGRDLPLPPKGLHHHHHH
B1: the “phosphorylation of LHCII, in vitro phosphorylation assay with phosphothreonine-specific immunoblot” value is recorded as “recombinant OsPSTOL1 protein restores phosphorylation of the light-harvesting complex II (LHCII) in the Arabidopsis stn7 stn8 double mutant (lane 4)”.
